Data on two molecules can be found in patent US20250376667A1.

Data set [1] concerns control peptide comprising PCL1 (PCL1 Pep).
In data set [2] the test system is KL958 (C521S C370S)-PCL1-HSA.

Chain of control peptide comprising PCL1 (PCL1 Pep) (chain, as listed by the source): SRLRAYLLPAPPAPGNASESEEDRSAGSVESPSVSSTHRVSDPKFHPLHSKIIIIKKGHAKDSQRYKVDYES

For kallikrein 2 (KLK2), the “protease cleavage of the peptide in vitro” value in data set [1] is “The ability of two proteases, kallikrein 2 (KLK2) and matrix metalloproteinase 7 (MMP7), to cleave the protease cleavable linker PCL1 was confirmed using a control peptide comprising PCL1 (PCL1 Pep)”.

B1: matrix metalloproteinase 7 (MMP7) (enzyme, UniProt P09237 95-267, looked up, species assumed)
Matrilysin: YSLFPNSPKWTSKVVTYRIVSYTRDLPHITVDRLVSKALNMWGKEIPLHFRKVVWGTADIMIGFARGAHGDSYPFDGPGNTLAHAFAPGTGLGGDAHFDEDERWTDGSSLGINFLYAATHELGHSLGMGHSSDPNAVMYPTYGNGDPQNFKLSQDDIKGIQKLYGKRSNSRKK
Turning to B1, the “protease cleavage in reaction buffer, immunoblot with anti-KL antibodies” value in data set [2] is reported as “PCL1-containing KL polypeptides displayed cleavage of the linker, resulting in a shorter KL polypeptide in the presence of MMP7”; in the data set on KL958 (C521S)-PCL1-HSA, “PCL1-containing KL polypeptides displayed cleavage of the linker, resulting in a shorter KL polypeptide in the presence of MMP7”. Further, in data set [1], the “protease cleavage of the peptide in vitro” value is “The ability of two proteases, kallikrein 2 (KLK2) and matrix metalloproteinase 7 (MMP7), to cleave the protease cleavable linker PCL1 was confirmed using a control peptide comprising PCL1 (PCL1 Pep)”.
